T1: FcγRIIb extracellular domain with C-terminal His tag (human, UniProt P31994 43-217)
T1 construct: extracellular domain; also called FcgRIIb; 2b
T1 sequence (looked up): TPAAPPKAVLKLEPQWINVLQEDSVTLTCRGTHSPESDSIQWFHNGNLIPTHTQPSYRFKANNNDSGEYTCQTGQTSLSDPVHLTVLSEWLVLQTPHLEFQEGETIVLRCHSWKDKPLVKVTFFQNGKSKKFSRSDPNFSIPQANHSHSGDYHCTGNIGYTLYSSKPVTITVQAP

T2: FcγRIIa R (FcγRIIa, allotype with Arg at position 131), extracellular domain with C-terminal His tag (human, UniProt P12318 34-217)
T2 construct: extracellular domain; also called FcγRIIa R type; 2aR
T2 sequence (looked up): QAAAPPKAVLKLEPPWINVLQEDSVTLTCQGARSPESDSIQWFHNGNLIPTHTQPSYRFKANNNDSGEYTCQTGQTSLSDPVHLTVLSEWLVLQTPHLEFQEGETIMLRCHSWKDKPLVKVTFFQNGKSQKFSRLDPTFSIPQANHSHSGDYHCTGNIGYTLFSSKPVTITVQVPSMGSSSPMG

B1: GpH7-A5/GpH7-B3 variant S337_20W/GpL16-k0 (antibody, human IgG1, kappa)
heavy 1: not shown
heavy 2: not shown
light: DIVMTQSPLSLPVTPGEPASISCQASESLVHSNRNTYLHWYLQKPGQSPQLLIYKVSNRFSGVPDRFSGSGSGTDFTLKISRVEAEDVGVYYCSQNTHVPPTFGQGTKVEIERTVAAPSVFIFPPSDEQLKSGTASVVCLLNNFYPREAKVQWKVDNALQSGNSQESVTEQDSKDSTYSLSSTLTLSKADYEKHKVYACEVTHQGLSSPVTKSFNRGEC
notes: also called He Ab S337_20W
B2: GpH7-A5/GpH7-B3 variant T335_18N/GpL16-k0 (antibody, human IgG1, kappa)
heavy 1: not shown
heavy 2: not shown
light: B1 light
notes: also called He Ab T335_18N
B3: GpH7-A5/GpH7-B3 variant S337_07I/GpL16-k0 (antibody, human IgG1, kappa)
heavy 1: not shown
heavy 2: not shown
light: B1 light
notes: also called He Ab S337_07I
B4: GpH7-A5/GpH7-B3 variant Y296_20W/GpL16-k0 (antibody, human IgG1, kappa)
heavy 1: not shown
heavy 2: not shown
light: B1 light
notes: also called He Ab Y296_20W
B5: GpH7-A5/GpH7-B3 variant S337_08L/GpL16-k0 (antibody, human IgG1, kappa)
heavy 1: not shown
heavy 2: not shown
light: B1 light
notes: also called He Ab S337_08L
B6: GpH7-A5/GpH7-B3 variant S337_16H/GpL16-k0 (antibody, human IgG1, kappa)
heavy 1: not shown
heavy 2: not shown
light: B1 light
notes: also called He Ab S337_16H
B7: GpH7-A5/GpH7-B3 variant S267_01G/GpL16-k0 (antibody, human IgG1, kappa)
heavy 1: not shown
heavy 2: not shown
light: B1 light
notes: also called He Ab S267_01G
B8: GpH7-A5/GpH7-B3 variant T335_16H/GpL16-k0 (antibody, human IgG1, kappa)
heavy 1: not shown
heavy 2: not shown
light: B1 light
notes: also called He Ab T335_16H
B9: GpH7-A5/GpH7-B3 variant S267_06M/GpL16-k0 (antibody, human IgG1, kappa)
heavy 1: not shown
heavy 2: not shown
light: B1 light
notes: also called He Ab S267_06M
B10: GpH7-A5/GpH7-B3 variant S239_10E/GpL16-k0 (antibody, human IgG1, kappa)
heavy 1: not shown
heavy 2: not shown
light: B1 light
notes: also called He Ab S239_10E
B11: GpH7-A5/GpH7-B3 variant S267_19Q/GpL16-k0 (antibody, human IgG1, kappa)
heavy 1: not shown
heavy 2: not shown
light: B1 light
notes: also called He Ab S267_19Q
B12: GpH7-A5/GpH7-B3 variant S239_05P/GpL16-k0 (antibody, human IgG1, kappa)
heavy 1: not shown
heavy 2: not shown
light: B1 light
notes: also called He Ab S239_05P
B13: GpH7-A5/GpH7-B3 variant S337_18N/GpL16-k0 (antibody, human IgG1, kappa)
heavy 1: not shown
heavy 2: not shown
light: B1 light
notes: also called He Ab S337_18N
B14: GpH7-A5/GpH7-B3 variant S239_06M/GpL16-k0 (antibody, human IgG1, kappa)
heavy 1: not shown
heavy 2: not shown
light: B1 light
notes: also called He Ab S239_06M
B15: GpH7-A5/GpH7-B3 variant T335_20W/GpL16-k0 (antibody, human IgG1, kappa)
heavy 1: not shown
heavy 2: not shown
light: B1 light
notes: also called He Ab T335_20W
B16: GpH7-A5/GpH7-B3 variant T335_15Y/GpL16-k0 (antibody, human IgG1, kappa)
heavy 1: not shown
heavy 2: not shown
light: B1 light
notes: also called He Ab T335_15Y
B17: GpH7-A5/GpH7-B3 variant T335_07I/GpL16-k0 (antibody, human IgG1, kappa)
heavy 1: not shown
heavy 2: not shown
light: B1 light
notes: also called He Ab T335_07I
B18: GpH7-A5/GpH7-B3 variant T335_13S/GpL16-k0 (antibody, human IgG1, kappa)
heavy 1: not shown
heavy 2: not shown
light: B1 light
notes: also called He Ab T335_13S
B19: GpH7-A5/GpH7-B3 variant T335_10E/GpL16-k0 (antibody, human IgG1, kappa)
heavy 1: not shown
heavy 2: not shown
light: B1 light
notes: also called He Ab T335_10E
B20: GpH7-A5/GpH7-B3 variant V266_06M/GpL16-k0 (antibody, human IgG1, kappa)
heavy 1: not shown
heavy 2: not shown
light: B1 light
notes: also called He Ab V266_06M
B21: GpH7-A5/GpH7-B3 variant T335_19Q/GpL16-k0 (antibody, human IgG1, kappa)
heavy 1: not shown
heavy 2: not shown
light: B1 light
notes: also called He Ab T335_19Q
B22: GpH7-A5/GpH7-B3 variant S298_06M/GpL16-k0 (antibody, human IgG1, kappa)
heavy 1: not shown
heavy 2: not shown
light: B1 light
notes: also called He Ab S298_06M
B23: GpH7-A5/GpH7-B3 variant S324_06M/GpL16-k0 (antibody, human IgG1, kappa)
heavy 1: not shown
heavy 2: not shown
light: B1 light
notes: also called He Ab S324_06M
B24: GpH7-A5/GpH7-B3 variant S337_15Y/GpL16-k0 (antibody, human IgG1, kappa)
heavy 1: not shown
heavy 2: not shown
light: B1 light
notes: also called He Ab S337_15Y
B25: GpH7-B3 variant S337_02A/GpL16-k0 (antibody, human IgG1, kappa)
heavy: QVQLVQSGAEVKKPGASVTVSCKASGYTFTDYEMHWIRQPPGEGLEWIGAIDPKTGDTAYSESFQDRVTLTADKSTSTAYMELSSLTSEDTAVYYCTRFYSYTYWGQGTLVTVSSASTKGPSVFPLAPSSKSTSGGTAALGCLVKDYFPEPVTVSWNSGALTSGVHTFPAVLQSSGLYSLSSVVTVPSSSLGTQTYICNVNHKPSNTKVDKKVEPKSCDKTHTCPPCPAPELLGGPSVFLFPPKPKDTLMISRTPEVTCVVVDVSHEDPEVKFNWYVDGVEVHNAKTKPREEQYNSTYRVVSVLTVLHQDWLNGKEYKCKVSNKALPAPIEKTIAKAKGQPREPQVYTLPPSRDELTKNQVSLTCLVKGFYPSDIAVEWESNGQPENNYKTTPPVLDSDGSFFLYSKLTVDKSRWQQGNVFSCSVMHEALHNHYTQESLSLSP
light: B1 light
notes: also called Ho Ab
B26: GpH7-B3 variant S239_10E/GpL16-k0 (antibody, human IgG1, kappa)
heavy: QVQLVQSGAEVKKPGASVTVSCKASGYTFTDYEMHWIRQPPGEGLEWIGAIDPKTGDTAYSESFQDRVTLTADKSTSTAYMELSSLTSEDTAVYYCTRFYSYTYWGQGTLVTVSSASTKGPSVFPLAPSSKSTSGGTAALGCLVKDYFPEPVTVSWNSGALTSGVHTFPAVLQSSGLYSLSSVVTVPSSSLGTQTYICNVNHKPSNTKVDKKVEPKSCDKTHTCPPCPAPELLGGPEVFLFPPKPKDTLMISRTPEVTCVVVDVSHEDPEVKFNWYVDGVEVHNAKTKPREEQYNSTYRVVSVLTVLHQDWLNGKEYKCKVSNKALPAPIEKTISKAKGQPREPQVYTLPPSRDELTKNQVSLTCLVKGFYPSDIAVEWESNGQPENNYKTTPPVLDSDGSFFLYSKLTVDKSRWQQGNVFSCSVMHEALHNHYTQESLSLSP
light: B1 light
notes: also called Ho Ab
B27: GpH7-B3 variant P331_13S/GpL16-k0 (antibody, human IgG1, kappa)
heavy: not shown
light: B1 light
notes: also called Ho Ab
B28: GpH7-B3 variant P331_15Y/GpL16-k0 (antibody, human IgG1, kappa)
heavy: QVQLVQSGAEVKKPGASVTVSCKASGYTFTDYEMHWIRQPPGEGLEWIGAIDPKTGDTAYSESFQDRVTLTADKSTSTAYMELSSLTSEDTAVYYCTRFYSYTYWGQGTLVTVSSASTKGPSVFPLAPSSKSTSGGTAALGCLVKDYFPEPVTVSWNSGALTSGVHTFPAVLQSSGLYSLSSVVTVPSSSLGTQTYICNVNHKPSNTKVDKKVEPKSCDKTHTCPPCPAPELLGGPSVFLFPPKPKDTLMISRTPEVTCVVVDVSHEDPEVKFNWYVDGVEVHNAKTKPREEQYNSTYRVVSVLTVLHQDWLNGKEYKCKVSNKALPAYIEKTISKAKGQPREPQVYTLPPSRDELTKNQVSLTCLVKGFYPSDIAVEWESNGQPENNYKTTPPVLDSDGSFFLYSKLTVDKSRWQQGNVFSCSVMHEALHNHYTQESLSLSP
light: B1 light
notes: also called Ho Ab
B29: GpH7-B3 variant P331_07I/GpL16-k0 (antibody, human IgG1, kappa)
heavy: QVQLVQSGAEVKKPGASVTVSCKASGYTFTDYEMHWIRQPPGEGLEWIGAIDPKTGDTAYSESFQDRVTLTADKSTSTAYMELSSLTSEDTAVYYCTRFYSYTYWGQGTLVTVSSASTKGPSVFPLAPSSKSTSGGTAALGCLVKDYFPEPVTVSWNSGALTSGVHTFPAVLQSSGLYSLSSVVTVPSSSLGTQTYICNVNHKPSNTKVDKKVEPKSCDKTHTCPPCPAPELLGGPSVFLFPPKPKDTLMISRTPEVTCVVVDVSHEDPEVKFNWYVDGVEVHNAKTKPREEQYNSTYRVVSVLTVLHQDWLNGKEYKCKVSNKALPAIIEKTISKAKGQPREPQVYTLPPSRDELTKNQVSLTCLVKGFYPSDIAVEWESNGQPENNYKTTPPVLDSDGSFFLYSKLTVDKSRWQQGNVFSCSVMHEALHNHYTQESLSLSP
light: B1 light
notes: also called Ho Ab
B30: GpH7-B3 variant S239_06M/GpL16-k0 (antibody, human IgG1, kappa)
heavy: not shown
light: B1 light
notes: also called Ho Ab
B31: GpH7-B3 variant S239_14T/GpL16-k0 (antibody, human IgG1, kappa)
heavy: not shown
light: B1 light
notes: also called Ho Ab
B32: GpH7-B3 variant Q295_10E/GpL16-k0 (antibody, human IgG1, kappa)
heavy: not shown
light: B1 light
notes: also called Ho Ab
B33: GpH7-B3 variant P331_08L/GpL16-k0 (antibody, human IgG1, kappa)
heavy: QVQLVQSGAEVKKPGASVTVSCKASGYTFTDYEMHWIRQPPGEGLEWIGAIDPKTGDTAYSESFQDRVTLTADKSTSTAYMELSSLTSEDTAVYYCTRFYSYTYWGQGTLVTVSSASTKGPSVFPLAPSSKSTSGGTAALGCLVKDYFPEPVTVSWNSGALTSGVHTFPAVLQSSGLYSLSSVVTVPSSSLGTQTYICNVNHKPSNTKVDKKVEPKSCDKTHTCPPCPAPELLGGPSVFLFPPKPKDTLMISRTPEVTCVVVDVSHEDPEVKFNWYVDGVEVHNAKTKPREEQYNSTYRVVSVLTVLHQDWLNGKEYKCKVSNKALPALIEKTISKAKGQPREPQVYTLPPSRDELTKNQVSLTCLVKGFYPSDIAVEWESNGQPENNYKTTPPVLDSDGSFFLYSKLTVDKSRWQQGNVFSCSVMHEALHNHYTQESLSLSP
light: B1 light
notes: also called Ho Ab
B34: GpH7-B3 variant P331_09D/GpL16-k0 (antibody, human IgG1, kappa)
heavy: not shown
light: B1 light
notes: also called Ho Ab
B35: GpH7-B3 variant P331_06M/GpL16-k0 (antibody, human IgG1, kappa)
heavy: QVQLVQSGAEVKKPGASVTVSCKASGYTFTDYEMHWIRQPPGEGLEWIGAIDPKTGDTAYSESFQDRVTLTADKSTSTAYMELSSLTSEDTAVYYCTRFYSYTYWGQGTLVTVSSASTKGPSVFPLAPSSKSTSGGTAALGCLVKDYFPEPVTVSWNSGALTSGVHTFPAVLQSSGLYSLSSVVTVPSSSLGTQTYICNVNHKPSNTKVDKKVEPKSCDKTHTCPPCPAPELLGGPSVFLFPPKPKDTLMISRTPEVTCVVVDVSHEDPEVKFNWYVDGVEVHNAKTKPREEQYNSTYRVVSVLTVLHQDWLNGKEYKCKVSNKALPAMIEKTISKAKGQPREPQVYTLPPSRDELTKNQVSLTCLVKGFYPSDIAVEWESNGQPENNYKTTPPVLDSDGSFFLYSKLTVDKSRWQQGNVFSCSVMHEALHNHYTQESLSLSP
light: B1 light
notes: also called Ho Ab
B36: GpH7-B3 variant P331_20W/GpL16-k0 (antibody, human IgG1, kappa)
heavy: not shown
light: B1 light
notes: also called Ho Ab
B37: GpH7-B3 variant S239_07I/GpL16-k0 (antibody, human IgG1, kappa)
heavy: not shown
light: B1 light
notes: also called Ho Ab
B38: GpH7-B3 variant Q295_06M/GpL16-k0 (antibody, human IgG1, kappa)
heavy: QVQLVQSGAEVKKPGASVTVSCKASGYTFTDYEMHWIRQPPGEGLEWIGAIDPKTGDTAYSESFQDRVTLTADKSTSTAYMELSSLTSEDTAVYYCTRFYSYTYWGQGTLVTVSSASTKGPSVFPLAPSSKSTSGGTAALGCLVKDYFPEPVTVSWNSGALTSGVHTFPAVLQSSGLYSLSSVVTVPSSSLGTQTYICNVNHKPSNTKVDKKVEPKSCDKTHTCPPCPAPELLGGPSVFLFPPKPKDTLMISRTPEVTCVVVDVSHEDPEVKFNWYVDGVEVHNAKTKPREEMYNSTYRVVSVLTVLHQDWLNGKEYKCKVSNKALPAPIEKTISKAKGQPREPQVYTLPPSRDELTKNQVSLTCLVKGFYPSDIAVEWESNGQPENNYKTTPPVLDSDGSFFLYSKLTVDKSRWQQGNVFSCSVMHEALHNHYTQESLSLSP
light: B1 light
notes: also called Ho Ab
B39: GpH7-B3 variant P331_16H/GpL16-k0 (antibody, human IgG1, kappa)
heavy: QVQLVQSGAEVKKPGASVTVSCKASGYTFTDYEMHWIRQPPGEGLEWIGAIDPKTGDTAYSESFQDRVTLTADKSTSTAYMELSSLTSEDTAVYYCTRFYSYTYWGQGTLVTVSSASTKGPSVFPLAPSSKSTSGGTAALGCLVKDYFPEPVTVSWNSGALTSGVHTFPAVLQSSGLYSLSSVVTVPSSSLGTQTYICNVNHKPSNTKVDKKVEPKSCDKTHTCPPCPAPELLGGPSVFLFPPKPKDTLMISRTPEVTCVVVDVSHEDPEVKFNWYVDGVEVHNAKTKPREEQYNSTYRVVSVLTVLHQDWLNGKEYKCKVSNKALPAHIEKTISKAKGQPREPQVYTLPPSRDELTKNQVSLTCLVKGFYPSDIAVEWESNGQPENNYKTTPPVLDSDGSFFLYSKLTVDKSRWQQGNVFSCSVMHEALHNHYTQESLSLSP
light: B1 light
notes: also called Ho Ab
B40: GpH7-B3 variant P331_18N/GpL16-k0 (antibody, human IgG1, kappa)
heavy: not shown
light: B1 light
notes: also called Ho Ab
B41: GpH7-B3 variant S239_18N/GpL16-k0 (antibody, human IgG1, kappa)
heavy: not shown
light: B1 light
notes: also called Ho Ab
B42: GpH7-B3 variant S239_08L/GpL16-k0 (antibody, human IgG1, kappa)
heavy: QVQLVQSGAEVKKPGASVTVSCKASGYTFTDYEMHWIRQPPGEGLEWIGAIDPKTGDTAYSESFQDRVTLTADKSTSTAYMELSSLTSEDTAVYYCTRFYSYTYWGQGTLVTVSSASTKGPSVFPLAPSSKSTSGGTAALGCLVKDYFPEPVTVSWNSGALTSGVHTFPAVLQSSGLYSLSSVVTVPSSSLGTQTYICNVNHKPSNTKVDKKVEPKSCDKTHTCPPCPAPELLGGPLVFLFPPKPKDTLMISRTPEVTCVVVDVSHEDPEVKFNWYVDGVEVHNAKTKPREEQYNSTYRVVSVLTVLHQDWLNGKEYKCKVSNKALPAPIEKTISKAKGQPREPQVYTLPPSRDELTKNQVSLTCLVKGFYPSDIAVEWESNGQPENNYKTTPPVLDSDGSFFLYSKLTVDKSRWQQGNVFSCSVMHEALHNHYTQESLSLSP
light: B1 light
notes: also called Ho Ab
B43: GpH7-B3 variant P331_14T/GpL16-k0 (antibody, human IgG1, kappa)
heavy: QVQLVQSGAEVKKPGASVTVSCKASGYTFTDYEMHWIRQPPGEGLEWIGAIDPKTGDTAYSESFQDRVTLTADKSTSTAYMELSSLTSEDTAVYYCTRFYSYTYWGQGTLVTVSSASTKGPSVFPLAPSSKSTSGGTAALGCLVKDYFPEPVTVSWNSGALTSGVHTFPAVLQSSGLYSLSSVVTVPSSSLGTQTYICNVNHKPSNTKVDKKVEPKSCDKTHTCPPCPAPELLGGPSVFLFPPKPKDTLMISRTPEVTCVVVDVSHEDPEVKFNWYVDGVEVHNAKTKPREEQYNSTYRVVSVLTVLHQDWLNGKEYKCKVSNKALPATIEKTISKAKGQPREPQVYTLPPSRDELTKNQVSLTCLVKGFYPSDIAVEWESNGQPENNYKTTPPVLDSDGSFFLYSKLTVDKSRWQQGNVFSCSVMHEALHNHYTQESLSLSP
light: B1 light
notes: also called Ho Ab
B44: GpH7-B3 variant P331_10E/GpL16-k0 (antibody, human IgG1, kappa)
heavy: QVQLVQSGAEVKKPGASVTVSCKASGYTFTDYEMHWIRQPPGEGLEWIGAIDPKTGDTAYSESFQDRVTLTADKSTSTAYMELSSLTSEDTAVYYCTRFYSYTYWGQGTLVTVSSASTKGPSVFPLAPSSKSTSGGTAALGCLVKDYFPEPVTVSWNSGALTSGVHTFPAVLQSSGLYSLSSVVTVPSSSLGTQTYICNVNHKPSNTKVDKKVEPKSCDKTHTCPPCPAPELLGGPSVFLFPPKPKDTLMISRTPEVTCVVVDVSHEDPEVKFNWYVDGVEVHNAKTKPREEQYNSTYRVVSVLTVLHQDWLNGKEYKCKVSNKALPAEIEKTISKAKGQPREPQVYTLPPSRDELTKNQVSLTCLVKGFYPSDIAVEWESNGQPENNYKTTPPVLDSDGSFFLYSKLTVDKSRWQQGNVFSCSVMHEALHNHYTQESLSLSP
light: B1 light
notes: also called Ho Ab

What follows are binders tested against T1, FcγRIIb extracellular domain with … (assay: SPR (Biacore), relative binding).

Row | He/Con_2b | Binder
1 | 109 % of HeCon Ab GpH7-A5/GpH7-B3/GpL16-k0 | B1
2 | 102 % of HeCon Ab GpH7-A5/GpH7-B3/GpL16-k0 | B2
3 | 104 % of HeCon Ab GpH7-A5/GpH7-B3/GpL16-k0 | B3
4 | 103 % of HeCon Ab GpH7-A5/GpH7-B3/GpL16-k0 | B4
5 | 100 % of HeCon Ab GpH7-A5/GpH7-B3/GpL16-k0 | B5
6 | 105 % of HeCon Ab GpH7-A5/GpH7-B3/GpL16-k0 | B6
7 | 105 % of HeCon Ab GpH7-A5/GpH7-B3/GpL16-k0 | B7
8 | 102 % of HeCon Ab GpH7-A5/GpH7-B3/GpL16-k0 | B8
9 | 210 % of HeCon Ab GpH7-A5/GpH7-B3/GpL16-k0 | B9
10 | 181 % of HeCon Ab GpH7-A5/GpH7-B3/GpL16-k0 | B10
11 | 218 % of HeCon Ab GpH7-A5/GpH7-B3/GpL16-k0 | B11
12 | 102 % of HeCon Ab GpH7-A5/GpH7-B3/GpL16-k0 | B12
13 | 103 % of HeCon Ab GpH7-A5/GpH7-B3/GpL16-k0 | B13
14 | 101 % of HeCon Ab GpH7-A5/GpH7-B3/GpL16-k0 | B14
15 | 104 % of HeCon Ab GpH7-A5/GpH7-B3/GpL16-k0 | B15
16 | 108 % of HeCon Ab GpH7-A5/GpH7-B3/GpL16-k0 | B16
17 | 106 % of HeCon Ab GpH7-A5/GpH7-B3/GpL16-k0 | B17
18 | 102 % of HeCon Ab GpH7-A5/GpH7-B3/GpL16-k0 | B18
19 | 108 % of HeCon Ab GpH7-A5/GpH7-B3/GpL16-k0 | B19
20 | 251 % of HeCon Ab GpH7-A5/GpH7-B3/GpL16-k0 | B20
21 | 100 % of HeCon Ab GpH7-A5/GpH7-B3/GpL16-k0 | B21
22 | 102 % of HeCon Ab GpH7-A5/GpH7-B3/GpL16-k0 | B22
23 | 112 % of HeCon Ab GpH7-A5/GpH7-B3/GpL16-k0 | B23
24 | 100 % of HeCon Ab GpH7-A5/GpH7-B3/GpL16-k0 | B24

The binders below were run against T2, FcγRIIa R (FcγRIIa, allotype with Arg …) (assay: SPR (Biacore), antibody captured on antigen peptide chip, FcγR as analyte; relative binding).
Description: Analysis of interaction between objective antibody and the FcγR was carried out using Biacore T100 (GE Healthcare). HBS-EP+ (GE Healthcare) was used as the running buffer, and the measurement temperature was set to 25° C. Chips produced by immobilizing the antigen peptide by the amine coupling method to a Series S Sencor Chip CM5 (GE Healthcare), or alternatively, chips produced by allowing preliminarily biotinylated antigen peptides to interact with and immobilize onto a Series S Sensor Chip SA (certified) (GE Healthcare) were used. Antibodies of interest were captured onto an antigen peptide-immobilized chip, and allowed to interact to each FcγR diluted with running buffer. To regenerate and repeatedly use the chip, the antibodies captured on the chip were washed off by reacting 10 mM glycine-HCl, pH 1.5.

Row | Ho/Con_2aR | Binder
25 | 102 % of GpH7-B3/GpL16-k0 (=100) | B25
26 | 122 % of GpH7-B3/GpL16-k0 (=100) | B26
27 | 87.8 % of GpH7-B3/GpL16-k0 (=100) | B27
28 | 105 % of GpH7-B3/GpL16-k0 (=100) | B28
29 | 67 % of GpH7-B3/GpL16-k0 (=100) | B29
30 | 82.9 % of GpH7-B3/GpL16-k0 (=100) | B30
31 | 92.3 % of GpH7-B3/GpL16-k0 (=100) | B31
32 | 99.2 % of GpH7-B3/GpL16-k0 (=100) | B32
33 | 74.4 % of GpH7-B3/GpL16-k0 (=100) | B33
34 | 88.8 % of GpH7-B3/GpL16-k0 (=100) | B34
35 | 79.8 % of GpH7-B3/GpL16-k0 (=100) | B35
36 | 102 % of GpH7-B3/GpL16-k0 (=100) | B36
37 | 85.3 % of GpH7-B3/GpL16-k0 (=100) | B37
38 | 93.9 % of GpH7-B3/GpL16-k0 (=100) | B38
39 | 100 % of GpH7-B3/GpL16-k0 (=100) | B39
40 | 76.9 % of GpH7-B3/GpL16-k0 (=100) | B40
41 | 103 % of GpH7-B3/GpL16-k0 (=100) | B41
42 | 106 % of GpH7-B3/GpL16-k0 (=100) | B42
43 | 80.8 % of GpH7-B3/GpL16-k0 (=100) | B43
44 | 94.6 % of GpH7-B3/GpL16-k0 (=100) | B44

Source: US20150344570A1 (published 2015)
